In US20260167959A1, “APTAZYME-BASED REGULATABLE GENE EXPRESSION SYSTEMS” (REJUVENATE BIO INC, priority 2022, published 2026):

B1: RA474 (nucleic acid)
DNA: GCGCGTCCTGGATTCGCGGAAACGCGTACATCCAGCTGACGAGTCCCAAATAGGACGAAACGCGCGGAATACCAGCATCGTCTTGATGCCCTTGGAAGTCCGC
modifications: expressed or natural sequence
B2: RA473 (nucleic acid)
DNA: GCGCGTCCTGGATTCGCGGAAACGCGTACATCCAGCTGACGAGTCCCAAATAGTGATACCAGCATCGTCTTGATGCCCTTGGCAGCACTAGGACGAAACGCGC
modifications: expressed or natural sequence
B3: RA458 (nucleic acid)
DNA: GCGCGTCCTGGATTCGCGGAAACGCGTACATCCAGCTGACGAGTCCCAAATAGGACGAACCGGAATACCAGCATCGTCTTGATGCCCTTGGAAGTCCGGACGCGC
modifications: expressed or natural sequence
B4: RA468 (nucleic acid)
DNA: GCGCGTCCTGGATTCGCGGAAACGCGTACATCCAGCCGAGAATACCAGCATCGTCTTGATGCCCTTGGAAGTCTCGTGACGAGTCCCAAATAGGACGAAACGCGC
modifications: expressed or natural sequence; listed as DNA, chemistry not fully specified
B5: RA464 (nucleic acid)
DNA: GCGCGTCCTGGAGTGATACCAGCATCGTCTTGATGCCCTTGGCAGCACTATTCGCGGAAACGCGTACATCCAGCTGACGAGTCCCAAATAGGACGAAACGCGC
modifications: expressed or natural sequence
B6: RA467 (nucleic acid)
DNA: GCGCGTCCTGGATTCGCGGAAACGAGAATACCAGCATCGTCTTGATGCCCTTGGAAGTCTCGTACATCCAGCTGACGAGTCCCAAATAGGACGAAACGCGC
modifications: expressed or natural sequence
B7: RA463 (nucleic acid)
DNA: GCGCGTCCTGGATTCGCGGAAACGCGTACATCCAGCTGACGAGTCGAGAATACCAGCATCGTCTTGATGCCCTTGGAAGTCTCGCCCAAATAGGACGAAACGCGC
modifications: expressed or natural sequence
B8: RA475 (nucleic acid)
DNA: GCGCGTCCTGGATTCGCGGAAACGCGTACATCCAGCTGACGAGTCCCAAATAGGACGAAACGCGAGAATACCAGCATCGTCTTGATGCCCTTGGAAGTCTCGC
modifications: chemistry not given here
B9: RA462 (nucleic acid)
DNA: GCGCGTCCTGGATTCGCGCCGGAATACCAGCATCGTCTTGATGCCCTTGGAAGTCCGGGAAACGCGTACATCCAGCTGACGAGTCCCAAATAGGACGAAACGCGC
modifications: expressed or natural sequence
B10: RA470 (nucleic acid)
DNA: GCGCGTCCTGGATTCGCGGAAACCGAGAATACCAGCATCGTCTTGATGCCCTTGGAAGTCTCGGCGTACATCCAGCTGACGAGTCCCAAATAGGACGAAACGCGC
modifications: expressed or natural sequence
B11: RA459 (nucleic acid)
DNA: GCGCGTCCTGGATTCGCGGAAACGCGTACATCCAGCTGACGAGTCCCAAATAGGACGAAGGAATACCAGCATCGTCTTGATGCCCTTGGAAGTCCACGCGC
modifications: expressed or natural sequence
B12: RA460 (nucleic acid)
DNA: GCGCGTCCTGGATTCGCAGTGATACCAGCATCGTCTTGATGCCCTTGGCAGCACTGGAAACGCGTACATCCAGCTGACGAGTCCCAAATAGGACGAAACGCGC
modifications: expressed or natural sequence
B13: RA472 (nucleic acid)
DNA: GCGCGTCCTGGATTCGCGGAAACGCGTACATCCAGCTGACGAGTCCCAAATAGAGAATACCAGCATCGTCTTGATGCCCTTGGAAGTCTCGGACGAAACGCGC
modifications: expressed or natural sequence
B14: RA469 (nucleic acid)
DNA: GCGAGAATACCAGCATCGTCTTGATGCCCTTGGAAGTCTCGCGCGTCCTGGATTCGCGGAAACGCGTACATCCAGCTGACGAGTCCCAAATAGGACGAAACGCGC
modifications: expressed or natural sequence
B15: RA461 (nucleic acid)
DNA: GCGCGTCCTGGATTCGCGGAAACGCGTACATCCAGGAGAATACCAGCATCGTCTTGATGCCCTTGGAAGTCTCCTGACGAGTCCCAAATAGGACGAAACGCGC
modifications: expressed or natural sequence
B16: RA476 (nucleic acid)
DNA: GCGCGTCCTGGATTCGCGGAAACGCGTACATCCAGCTGACGAGTCCCAAATAGGACGAAAAGAATACCAGCATCGTCTTGATGCCCTTGGAAGTCTCGCGC
modifications: expressed or natural sequence
B17: RA457 (nucleic acid)
DNA: GCGCGTCCTGGATTCGCGGAAACGCGTACATCCAGCTGACGAGTCCCAAATAGGACGAAGTGATACCAGCATCGTCTTGATGCCCTTGGCAGCACTAACGCGC
modifications: expressed or natural sequence
B18: RA466 (nucleic acid)
DNA: GCGCGTCCTGGATTCGCGGAACGGAATACCAGCATCGTCTTGATGCCCTTGGAAGTCCGACGCGTACATCCAGCTGACGAGTCCCAAATAGGACGAAACGCGC
modifications: expressed or natural sequence
B19: RA471 (nucleic acid)
DNA: GCGCGTCCTGGATTCGCGGAAACGCGTACATCCAGCTGACGAGTCCCAAATAGGACCGAGAATACCAGCATCGTCTTGATGCCCTTGGAAGTCTCGGAAACGCGC
modifications: expressed or natural sequence
B20: RA465 (nucleic acid)
DNA: GCGCGTCCTGGATTCGCGGAAACGCGTACATCCAGCTGACCGAGAATACCAGCATCGTCTTGATGCCCTTGGAAGTCTCGGAGTCCCAAATAGGACGAAACGCGC
modifications: expressed or natural sequence
B21: RA048 (nucleic acid)
DNA: GCGCGTCCTGGATTCGCGGAAACGCGTACATCCAGCTGACGCGAGAATACCAGCATCGTCTTGATGCCCTTGGAAGTCTCGAGTCCCAAATAGGACGAAACGCGC
modifications: expressed or natural sequence
B22: RA047 (nucleic acid)
DNA: GCGCGTCCTGGATTCGCGGAAACGCGTACATCCAGCTGACGAGTCCCAGGAATACCAGCATCGTCTTGATGCCCTTGGAAGTCCAATAGGACGAAACGCGC
modifications: expressed or natural sequence
B23: RA045 (nucleic acid)
DNA: GAGAATACCAGCATCGTCTTGATGCCCTTGGAAGTCTCGCGCGTCCTGGATTCGCGGAAACGCGTACATCCAGCTGACGAGTCCCAAATAGGACGAAACGCGC
modifications: expressed or natural sequence
B24: RA049 (nucleic acid)
DNA: GCGCGTCCTGGATTCGCGGAAACGCGTACATAGAATACCAGCATCGTCTTGATGCCCTTGGAAGTCTCCAGCTGACGAGTCCCAAATAGGACGAAACGCGC
modifications: expressed or natural sequence
B25: RA046 (nucleic acid)
DNA: GCGCGTCCTGGATTCGCGGAAACGCGTACATCCAGCTGACGAGTCCGGAATACCAGCATCGTCTTGATGCCCTTGGAAGTCCGCCAAATAGGACGAAACGCGC
modifications: expressed or natural sequence
B26: RA051 (nucleic acid)
DNA: GCGCGTCCTGGATTCGCGGAAACGCGTACATCCAGCTGACGAGTCCCAAATAGGACGAAACCGAGAATACCAGCATCGTCTTGATGCCCTTGGAAGTCTCGGCGC
modifications: expressed or natural sequence
B27: RA004: exemplary aptazyme of the T3H48 aptazyme variant library (nucleic acid)
DNA: GCGCGTCCTGGATTCGCGGAAACGCGTACATCCAGCTGACGAGTCCCAAATAGGCCGGAATACCAGCATCGTCTTGATGCCCTTGGAAGTCCGGACGAAACGCGC
modifications: expressed or natural sequence
notes: exemplary aptazyme of the T3H48 aptazyme variant library
B28: RA050 (nucleic acid)
DNA: GCGCGTCCTGGATTCGCGGAAACGCGTACATCCAGCTGACGAGAATACCAGCATCGTCTTGATGCCCTTGGAAGTCTCGCGAGTCCCAAATAGGACGAAACGCGC
modifications: expressed or natural sequence

What follows are molecules tested on Renilla luciferase RNA (assay: Barcoded aptazyme variant library screen: un-cleaved Renilla luciferase RNA by barcode read counts, HEK293-T cells). Settings: un-cleaved Renilla luciferase RNA by barcode read counts; with 1 mM theophylline (ON) over without theophylline (OFF); HEK293-T cells; triplicate.
Type: cell-based
Method in brief: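 Barcode sequencing of cDNA versus DNA, normalized per aptazyme, gave the un-cleaved Renilla luciferase RNA fraction and fold-change with versus without theophylline (triplicates). Library: T3H48 ribozyme with one of seven theophylline aptamer variants inserted at each position, placed in the Renilla 3′ UTR of a dual-luciferase vector.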

Molecule | Fold change in RNA expression between the ON state and the OFF state
B1 | 0.3
B2 | 0.3
B3 | 0.5
B4 | 0.4
B5 | 0.4
B6 | 0.4
B7 | 0.4
B8 | 0.3
B9 | 0.4
B10 | 0.4
B11 | 0.5
B12 | 0.5
B13 | 0.3
B14 | 0.4
B15 | 0.5
B16 | 0.2
B17 | 0.5
B18 | 0.4
B19 | 0.4
B20 | 0.4

Same assay, conditions: un-cleaved Renilla luciferase RNA, HEK293-T cells cultured with 1 mM theophylline (ON) over without theophylline (OFF); barcode read counts, triplicate

Molecule | Fold change in RNA expression between the ON state and the OFF state
B21 | 2.0 fold
B22 | 2.0 fold
B23 | 2.0 fold
B24 | 2.0 fold
B25 | 2.0 fold
B26 | 2.0 fold
B27 | 5.3 fold
B28 | 2.0 fold
